Biological target: T1, Cra (Escherichia coli O157:H7 (EHEC) 86-24) (UniProt P0ACP3)
T1 sequence: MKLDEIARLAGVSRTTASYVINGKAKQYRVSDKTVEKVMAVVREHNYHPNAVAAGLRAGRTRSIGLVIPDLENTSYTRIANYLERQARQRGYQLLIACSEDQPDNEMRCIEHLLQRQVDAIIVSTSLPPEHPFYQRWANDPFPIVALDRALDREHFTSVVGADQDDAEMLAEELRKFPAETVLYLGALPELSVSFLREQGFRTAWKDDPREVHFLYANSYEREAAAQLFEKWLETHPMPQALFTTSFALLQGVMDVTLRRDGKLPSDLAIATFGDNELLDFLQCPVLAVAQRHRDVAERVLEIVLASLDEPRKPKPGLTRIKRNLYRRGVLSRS
Assay: competition

With “TCGGATCCCATGTGCTGCGACTGCGTTCGCTTACCCCAATCACTTACTTATGTAAGCTCCTGGGGATTCACTCGCTTGCCGCCTTCCTGTAACTCGAATTAAGTAGAGTATAGTGAAACGGTTCAGCTTGGTTTTTATTCTGTTTTATTTGTTTATGCAATGAGATCTATCTTATAAAGAGAAACGCTTAACTAAATGGAAATGCGAATTCGA (double strand) [ler probe aa (-450 to -255)]” the binding was “binds”.

Reference: PMC3482499
